Test system: EHEC (86-24 O157:H7, O104:H4, O128:H2)
Assay: in vitro adherence assay: inhibition of EHEC adherence to human intestinal epithelial cells (LOVO) after pre-incubation with test strains
Assay type: cell-based
Conditions: ESBL-producing O104:H4 outbreak strain, O128:H2 and O157:H7 EHEC isolates; FIG. 5 (tested as producer strain E. coli G3/10)
Procedure: Enterohemorrhagic E. coli adhere to intestinal epithelial cells. In a second experiment, confluent monolayers of LOVO cells were pre-incubated with bacterial test strains at a multiplicity of infection (MOI) of 100:1 E. coli to host cells. The influence of EcN and E. coli G3/10 was tested. After two hours of incubation, cells were washed and infected with EHEC using an MOI of 100:1 EHEC to host cells. Three EHEC isolates were tested as indicator strains using the in vitro adherence assay. We used HUS-associated EHEC 86-24 serotype O157:H7 and two different isolates of the EHEC O104:H4 outbreak strain as well as an EHEC O128:H2 patient isolate. Since the EHEC O104:H4 isolates are ESBL producers, medical treatment is limited. Adherence efficiency in % are expressed as adherence of EHEC relative to adherence without any pre-incubation (negative control), which is set 100%. The data are the mean±SD of three separate experiments in duplicate wells.

B1: microcin S: new class IIa microcin, antimicrobial polypeptide of E. coli G3/10, SEQ ID NO: 7 (precursor with leader SEQ ID NO: 6) (protein, listed as Escherichia coli)
chain: NANSNYEGGGSRSRNTGARNSLGRNAPTHIYSDPSTVKCANAVFSGMVGGAIKGGPVGMTRGTIGGAVIGQCLSGGGNGNGGGNRAGSSNCSGSNVGGTCSR
inhibitory effect of EHEC: shows an inhibitory effect of EHEC
